Test results published in IntAct's records for PubMed 22252131.
One block for each substance: values may come before it.

Experiments:
hakai_mouse Cbll1 [1] = target: hakai_mouse Cbll1 (UniProt Q9JIY2)
hakai_mouse Cbll1 [2] = target: hakai_mouse Cbll1 (UniProt Q9JIY2); remark: listed apart in the source
hakai_mouse Cbll1 [3] = target: hakai_mouse Cbll1 (UniProt Q9JIY2); remark: listed apart in the source
hakai_mouse Cbll1 [4] = target: hakai_mouse Cbll1 (UniProt Q9JIY2); remark: listed apart in the source

hakai_mouse Cbll1, sequence (Q9JIY2 whole entry): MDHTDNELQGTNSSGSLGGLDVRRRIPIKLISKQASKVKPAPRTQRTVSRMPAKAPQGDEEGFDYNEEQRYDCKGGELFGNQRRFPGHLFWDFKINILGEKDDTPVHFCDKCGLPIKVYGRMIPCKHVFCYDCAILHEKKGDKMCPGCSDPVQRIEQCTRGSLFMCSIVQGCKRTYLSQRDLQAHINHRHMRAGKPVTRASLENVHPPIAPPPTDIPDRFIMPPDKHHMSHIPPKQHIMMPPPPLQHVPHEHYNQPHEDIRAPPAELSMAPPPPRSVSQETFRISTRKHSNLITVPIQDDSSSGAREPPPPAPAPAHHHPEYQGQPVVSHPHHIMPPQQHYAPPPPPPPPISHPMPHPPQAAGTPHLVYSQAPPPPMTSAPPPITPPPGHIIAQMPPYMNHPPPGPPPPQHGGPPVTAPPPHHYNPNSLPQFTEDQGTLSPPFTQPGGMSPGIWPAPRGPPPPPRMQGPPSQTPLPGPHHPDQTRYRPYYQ
Src substrate cortactin (Mus musculus), Q60598 Y482F, sequence (Q60598 whole entry Y482F): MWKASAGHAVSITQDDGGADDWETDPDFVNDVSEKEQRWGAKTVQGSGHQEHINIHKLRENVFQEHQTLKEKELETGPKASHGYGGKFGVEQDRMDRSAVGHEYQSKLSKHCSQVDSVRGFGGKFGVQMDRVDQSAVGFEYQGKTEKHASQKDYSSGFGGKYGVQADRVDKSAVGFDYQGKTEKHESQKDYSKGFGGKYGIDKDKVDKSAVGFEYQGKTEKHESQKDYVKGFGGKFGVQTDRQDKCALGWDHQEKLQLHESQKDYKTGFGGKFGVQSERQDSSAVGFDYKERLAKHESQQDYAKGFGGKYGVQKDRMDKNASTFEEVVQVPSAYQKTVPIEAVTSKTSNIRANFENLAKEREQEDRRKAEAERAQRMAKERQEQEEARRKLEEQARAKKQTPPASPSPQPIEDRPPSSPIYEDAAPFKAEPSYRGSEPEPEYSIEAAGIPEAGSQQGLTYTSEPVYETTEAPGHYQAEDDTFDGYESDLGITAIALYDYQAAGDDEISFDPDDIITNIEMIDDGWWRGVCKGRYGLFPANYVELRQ
Src substrate cortactin (Mus musculus), Q60598 D480A, sequence (Q60598 whole entry D480A): as the sequence (Q60598 whole entry Y482F) above, with D480A, F482Y counted along it
Src substrate cortactin (Mus musculus), Q60598 E478A, sequence (Q60598 whole entry E478A): as the sequence (Q60598 whole entry Y482F) above, with E478A, F482Y counted along it

effect of a mutation on the interaction (hakai_mouse Cbll1 [1]): decreasing interaction
Substance: Src substrate cortactin (Mus musculus), Q60598 D480A

effect of a mutation on the interaction (hakai_mouse Cbll1 [2]): decreasing interaction
Substance: Src substrate cortactin (Mus musculus), Q60598 E478A

effect of a mutation on the interaction (hakai_mouse Cbll1 [3]): disrupting interaction
Substance: Src substrate cortactin (Mus musculus), Q60598 E486A

effect of a mutation on the interaction (hakai_mouse Cbll1 [4]): disrupting interaction
Substance: Src substrate cortactin (Mus musculus), Q60598 Y482F
